Three molecules from US7700571 (Genentech, dated 2010) can be followed below.

Some results are limits rather than exact numbers.

For experiment [1], the target named is Flt-1 on primary mouse liver sinusoidal endothelial cells (LSEC) (mouse) (UniProt P35969). Description: cell-based or functional assay.
For experiment [2], the target named is T1, KDR (UniProt P35968 20-764, limits assumed).
T1 construct: also called VEGFR-2; KDR receptor
Description: soluble radio-immuno receptor-binding assay (RIA); target KDR.

The next experiment addresses T2, Flt-1 (UniProt P17948 27-758, limits assumed).
T2 construct: also called VEGFR-1; Flt-1 receptor
The experiment can be described thus: soluble radio-immuno receptor-binding assay (RIA); target Flt-1.

For experiment [3], the target named is T3, Flt-1 on primary mouse liver sinusoidal endothelial cells (LSEC) (mouse, UniProt P35969 23-1333).
T3 sequence (looked up): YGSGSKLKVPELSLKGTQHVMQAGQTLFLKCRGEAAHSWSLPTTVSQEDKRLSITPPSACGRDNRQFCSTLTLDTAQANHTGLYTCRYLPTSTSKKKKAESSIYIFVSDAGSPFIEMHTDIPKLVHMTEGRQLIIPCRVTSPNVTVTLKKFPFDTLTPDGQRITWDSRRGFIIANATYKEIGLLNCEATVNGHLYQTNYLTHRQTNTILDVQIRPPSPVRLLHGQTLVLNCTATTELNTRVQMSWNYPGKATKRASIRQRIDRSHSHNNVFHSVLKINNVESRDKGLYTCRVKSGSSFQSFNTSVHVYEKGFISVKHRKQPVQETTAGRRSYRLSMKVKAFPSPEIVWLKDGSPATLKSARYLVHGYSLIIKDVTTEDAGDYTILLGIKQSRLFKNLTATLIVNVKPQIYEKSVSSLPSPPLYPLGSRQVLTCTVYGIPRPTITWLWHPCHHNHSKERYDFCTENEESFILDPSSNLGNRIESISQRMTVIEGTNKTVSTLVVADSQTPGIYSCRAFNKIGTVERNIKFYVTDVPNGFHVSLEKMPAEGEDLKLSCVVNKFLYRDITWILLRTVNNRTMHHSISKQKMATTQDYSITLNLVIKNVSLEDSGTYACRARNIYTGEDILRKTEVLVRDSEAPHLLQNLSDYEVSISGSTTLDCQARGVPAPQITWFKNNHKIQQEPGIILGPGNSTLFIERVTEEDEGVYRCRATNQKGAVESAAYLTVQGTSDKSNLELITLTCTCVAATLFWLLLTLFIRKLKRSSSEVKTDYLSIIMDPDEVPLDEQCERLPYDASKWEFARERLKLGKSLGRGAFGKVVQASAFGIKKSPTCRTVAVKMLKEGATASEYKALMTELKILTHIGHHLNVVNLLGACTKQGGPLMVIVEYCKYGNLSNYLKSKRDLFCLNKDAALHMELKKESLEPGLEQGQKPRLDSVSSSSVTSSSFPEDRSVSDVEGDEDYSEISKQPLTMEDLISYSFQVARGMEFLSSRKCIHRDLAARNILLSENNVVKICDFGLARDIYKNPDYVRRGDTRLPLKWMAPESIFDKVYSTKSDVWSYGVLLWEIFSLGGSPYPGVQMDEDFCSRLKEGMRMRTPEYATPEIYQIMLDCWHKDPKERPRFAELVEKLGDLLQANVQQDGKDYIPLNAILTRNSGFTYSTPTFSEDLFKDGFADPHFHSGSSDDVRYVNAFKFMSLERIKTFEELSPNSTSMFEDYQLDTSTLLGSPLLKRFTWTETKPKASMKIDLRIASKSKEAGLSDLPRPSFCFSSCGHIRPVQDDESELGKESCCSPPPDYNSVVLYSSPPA
The experiment can be described thus: cell-based or functional assay.

Experiment [4] deals with T1, KDR. Description: soluble radio-immuno receptor-binding assay (RIA).

T1 sequence (P35968 20-764 limits assumed): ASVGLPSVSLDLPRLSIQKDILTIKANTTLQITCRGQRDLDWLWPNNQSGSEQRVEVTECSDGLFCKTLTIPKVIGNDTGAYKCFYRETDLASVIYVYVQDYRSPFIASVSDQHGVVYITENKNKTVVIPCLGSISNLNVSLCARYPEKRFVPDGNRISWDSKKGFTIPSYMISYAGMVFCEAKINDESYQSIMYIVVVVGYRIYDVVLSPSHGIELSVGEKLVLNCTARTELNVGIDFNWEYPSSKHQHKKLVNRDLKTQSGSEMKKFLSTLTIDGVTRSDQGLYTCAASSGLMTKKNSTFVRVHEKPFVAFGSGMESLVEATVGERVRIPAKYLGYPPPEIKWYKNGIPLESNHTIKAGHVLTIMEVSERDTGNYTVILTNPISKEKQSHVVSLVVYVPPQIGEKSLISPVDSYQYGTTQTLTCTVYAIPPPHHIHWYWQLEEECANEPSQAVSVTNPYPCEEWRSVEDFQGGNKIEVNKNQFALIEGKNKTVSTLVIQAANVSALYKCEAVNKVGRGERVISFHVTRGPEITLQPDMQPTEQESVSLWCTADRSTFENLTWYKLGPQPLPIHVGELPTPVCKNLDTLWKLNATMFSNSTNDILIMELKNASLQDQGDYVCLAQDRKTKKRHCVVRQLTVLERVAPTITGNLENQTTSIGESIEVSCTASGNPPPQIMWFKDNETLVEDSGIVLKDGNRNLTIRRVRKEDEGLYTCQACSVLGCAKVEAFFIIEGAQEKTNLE
T2 sequence (P17948 27-758 limits assumed): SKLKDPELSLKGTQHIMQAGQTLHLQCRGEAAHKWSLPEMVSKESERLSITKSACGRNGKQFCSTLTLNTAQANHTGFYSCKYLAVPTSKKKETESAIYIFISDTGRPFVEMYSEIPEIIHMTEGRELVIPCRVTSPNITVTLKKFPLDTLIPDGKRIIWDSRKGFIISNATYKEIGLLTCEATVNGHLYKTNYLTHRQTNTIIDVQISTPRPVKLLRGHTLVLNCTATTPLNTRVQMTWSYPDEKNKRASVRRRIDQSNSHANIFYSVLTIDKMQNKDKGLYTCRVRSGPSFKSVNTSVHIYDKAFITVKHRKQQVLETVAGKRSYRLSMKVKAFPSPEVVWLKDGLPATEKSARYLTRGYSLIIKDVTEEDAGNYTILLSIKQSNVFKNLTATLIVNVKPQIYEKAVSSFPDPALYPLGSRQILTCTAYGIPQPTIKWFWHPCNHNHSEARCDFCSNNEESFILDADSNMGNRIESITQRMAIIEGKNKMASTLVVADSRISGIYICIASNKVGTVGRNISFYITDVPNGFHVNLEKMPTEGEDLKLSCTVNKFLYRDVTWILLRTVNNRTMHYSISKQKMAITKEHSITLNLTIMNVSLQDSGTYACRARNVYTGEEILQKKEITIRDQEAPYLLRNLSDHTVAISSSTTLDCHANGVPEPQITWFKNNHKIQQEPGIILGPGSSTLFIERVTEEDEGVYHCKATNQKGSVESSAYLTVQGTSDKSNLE

In experiment [1], “recombinant human VEGF (from UniProt P15692 181-395) (ligand)” returned an induction of HGF mRNA in LSEC (Taqman RT-PCR, 10 ng/ml, 24 h) of 5.5 fold and an induction of IL-6 mRNA in LSEC (Taqman RT-PCR, 10 ng/ml, 24 h) of 3.3 fold.

B1: native VEGF(8-109) (ligand)
chain: GQNHHEVVKFMDVYQRSYCHPIETLVDIFQEYPDEIEYIFKPSCVPLMRCGGCCNDEGLECVPTEESNITMQIMRIKPHQGQHIGEMSFLQHNKCECRPKKD
notes: If that entry includes the signal peptide, 8-109 must be shifted; also called the native protein
On to B1, for which the Kd – broadly, the free concentration of one partner at which half of the binding sites on the other are occupied at equilibrium, for simple one-to-one binding – in the experiment with KDR [2] is 0.5 nM; with Flt-1 it was 0.4 nM.

B2: Flt-sel variant I43A/I46A/Q79A/I83A (ligand)
chain: APMAEGGGQNHHEVVKFMDVYQRSYCHPIETLVDIFQEYPDEAEYAFKPSCVPLMRCGGCCNDEGLECVPTEESNITMAIMRAKPHQGQHIGEMSFLQHNKCECRPKKDRARQENPCGPCSERRKHLFVQDPQTCKCSCKNTDSRCKARQLELNERTCRCDKPRR
notes: VEGF variant with four alanine substitutions, numbered on native VEGF; also called Fit-sel; FIt-sel
For B2, in experiment [3], the “induction of HGF mRNA in LSEC (Taqman RT-PCR, 10 ng/ml, 24 h)” value is 5.5 fold and the “induction of IL-6 mRNA in LSEC (Taqman RT-PCR, 10 ng/ml, 24 h)” value was determined as 3.3 fold. Also, the “fold reduction of KDR-binding affinity against native VEGF(8-109)” value with KDR [4] was no less than 470 fold.
